Laboratory results reported in PMC12327617.

Molecular target: myeloperoxidase (MPO), two subunits MPOα and MPOβ (human (endogenous in HL-60))
Assay: co-IP; anti-MPO-coated magnetic beads with HL-60 NET extract; H3.1-nucleosomes left after the IP quantified with the H3.1-nucleosome immunoassay, depletion against the unprocessed sample

Work on “H3.1-nucleosomes (nucleosomes containing the histone variant H3.1) of NETs (from UniProt P68431 1-136; P62805 1-103; P0C0S8 1-130; P62807 1-126) (complex)” yielded a percent depletion of H3.1-nucleosomes after IP anti-MPO of 30%.
